According to the supplement of paper PMC9170038:

System: MS2 coat protein
Test: apparent KD of MS2 coat protein; designed switch direction (-1 OFF switch, 1 ON switch): -1; higher = weaker reporter binding
How it was run: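 Designed RNA switches sharing common flanks were transcribed on Illumina chips by stalled E. coli RNA polymerase. They were titrated with SNAP-549-labelled MS2 coat protein, from 0.7 or 1.5 nM doubling to 3 µM, in Tris-HCl pH 7.5 buffer with KCl, MgCl2, BSA, DTT, tRNA and Tween-20. Titrations ran without input, with 200 uM small-molecule ligand, or with an oligonucleotide input. The apparent KD of each design is the median over its clusters, after curve-fitting of normalised cluster fluorescence.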

[1] = input ligand: microRNA oligo, concentration not stated
[2] = Eterna round: R95, input ligand: microRNA oligo, concentration not stated
[3] = Eterna round: R95, input ligand: FMN 200 uM
[4] = Eterna round: R95, input ligand: none

GAAAACGAAGAGGAUAUAUGAUAUCAAAGCUUCAUAGAAGGCUUCACAUGAGGAUCACCCAUGUGAUCUUCAAA [jl-ex6-4.07 ViennaUCT mod] (Eterna round: R97, puzzle: Exclusion 6)
apparent KD of MS2 coat protein (input ligand: FMN 200 uM): 262 nM | apparent KD of MS2 coat protein (input ligand: none): 37.9 nM

CCCACAAGCUUUUUGCUCGACAUGAGGAUCACCCAUGUUGAAUGGGUUAUAUGUGUGUGAUACAUAUAUAUGUACCU [-24.7, -47.9 kcal, A 26%] (Eterna round: R97, puzzle: Sensor, turn-off variant 1)
apparent KD of MS2 coat protein (input ligand: FMN 200 uM): 23.2 nM | apparent KD of MS2 coat protein (input ligand: none): 23.5 nM

GUGGUGGGUUUUCCGAGUGACAUGAGGAUCACCCAUGUGUUAGUUUGAGGUAUCAAGCGAAUGGCUCGUCUUAUGUG [JR_SV3TOV1_Sub046] (Eterna round: R96, puzzle: Sensor v3, turn-off variant 1)
apparent KD of MS2 coat protein (input ligand: FMN 200 uM): 982 nM | apparent KD of MS2 coat protein [1]: 44.7 nM | apparent KD of MS2 coat protein (input ligand: none): 623 nM

AGCAGGCAUUCCUCUGGACACAUGAGGAUCACCCAUGUUCGUCGCUCGCAGCGUUGAGGCAUUACCCUUAACGCUUU [Eternabot (Original) Solution 29] (Eterna round: R97, puzzle: Sensor, turn-off variant 1)
apparent KD of MS2 coat protein (input ligand: FMN 200 uM): 52.5 nM | apparent KD of MS2 coat protein (input ligand: none): 48.8 nM

UCAGGCUAUUAAACCGCCGACAUGAGGAUCACCCAUGUACUUCAUGCGCUAGCUUGCUCGUCUACCUCAAGGAUCCG [Eternabot (L2) Solution 24] (Eterna round: R97, puzzle: Sensor, turn-off variant 1)
apparent KD of MS2 coat protein (input ligand: FMN 200 uM): 67.7 nM | apparent KD of MS2 coat protein (input ligand: none): 68.6 nM

GACUCGCACUGAGGAUAUCGAAACGAUACGUCGCGAGAAGGCAGAGCGAACAUGAGGAUCACCCAUGUGGGUUCGCCUGAUGUA [Geedinsoma] (Eterna round: R96, puzzle: Exclusion NG 1)
apparent KD of MS2 coat protein (input ligand: FMN 200 uM): 23.2 nM | apparent KD of MS2 coat protein [1]: 12.9 nM | apparent KD of MS2 coat protein (input ligand: none): 16.7 nM

GAAUAGGCAGGAUAUACAUGAGGAUCACCCAUGUGCUUGCGAUAGGCACGUGAACAACGUAGAAGGGCCUUAAC [ChP 13.04.2015 #12] (Eterna round: R96, puzzle: Exclusion 3)
apparent KD of MS2 coat protein (input ligand: FMN 200 uM): 184 nM | apparent KD of MS2 coat protein [1]: 30.8 nM | apparent KD of MS2 coat protein (input ligand: none): 34.9 nM

CCGACCUGAGGAUAUAGCGUCCGCGACAUGAGGAUCACCCAUGUCCCUCAUAACGUAAAACUAGAAGGUAGAGUCG [Eternabot (L1) Solution 75] (Eterna round: R97, puzzle: Exclusion 5)
apparent KD of MS2 coat protein (input ligand: FMN 200 uM): 29.8 nM | apparent KD of MS2 coat protein (input ligand: none): 25.7 nM

AAGAACGUCGGAGGAUAUCCAGCCAAGCCCGCAGGAGAAGGCCGGCGGUGGGAUGUGCUUCACAUGAGGAUCACCCAUGUUAAU [Onriti] (Eterna round: R96, puzzle: Exclusion NG 1)
apparent KD of MS2 coat protein (input ligand: FMN 200 uM): 361 nM | apparent KD of MS2 coat protein [1]: 64.6 nM | apparent KD of MS2 coat protein (input ligand: none): 96.2 nM

GCUGGUCAAGGAUAUAUAUGACGUGCUUCGGCACGAAGGUCACAUGAGGAUCACCCAUGUAGAAGGUGACCAGC [E2/9-C1] (Eterna round: R97, puzzle: Exclusion 2)
apparent KD of MS2 coat protein (input ligand: FMN 200 uM): 304 nM | apparent KD of MS2 coat protein (input ligand: none): 39.7 nM

AUAAAUCAUGUAGGAUAUGCGUGGCAAAGCUAUGCAGAAGGACAUGAGGAUCACCCAUGUCUUUCCGUCUGAGUACAGACGGGA [Mat - Exclusion NG 1 - Mod of JL - D47] (Eterna round: R96, puzzle: Exclusion NG 1)
apparent KD of MS2 coat protein (input ligand: FMN 200 uM): 172 nM | apparent KD of MS2 coat protein [1]: 21.1 nM | apparent KD of MS2 coat protein (input ligand: none): 24.9 nM

GAAUAGGGAGGAUAUCCAAUAUAUGACAUGAGGAUCACCCAUGUUUCCACUCGUACCUCCGGAGAAGGCCCAUAAA [Ex5 #4] (Eterna round: R97, puzzle: Exclusion 5)
apparent KD of MS2 coat protein (input ligand: FMN 200 uM): 22.8 nM | apparent KD of MS2 coat protein (input ligand: none): 19.9 nM

GGUGCCCGACAAGGAUAUAAGAUACAGAAAACCUUAGAAGGUGUCACAUGAGGAUCACCCAUGUGGUCCGGCACCAAUAACUCC [Inedraor] (Eterna round: R96, puzzle: Exclusion NG 1)
apparent KD of MS2 coat protein (input ligand: FMN 200 uM): 58.9 nM | apparent KD of MS2 coat protein [1]: 18.1 nM | apparent KD of MS2 coat protein (input ligand: none): 41.9 nM

UAUUCACAUGAGGAUCACCCAUGUCAGGAUAUAGAAGCGUAGUCCGCAAGAAAGCUUACUAGAAGGGACGUAUU [EX1 B.22] (Eterna round: R97, puzzle: Exclusion 1)
apparent KD of MS2 coat protein (input ligand: FMN 200 uM): 18.8 nM | apparent KD of MS2 coat protein (input ligand: none): 18.5 nM

AGGUGUAGAGGAUAUACAGUGUAUUACAUGAGGAUCACCCAUGUCCCUCAAUGAGUGUCAGUAGAAGGCUACACCA [Omei Ex5 C3] (Eterna round: R97, puzzle: Exclusion 5)
apparent KD of MS2 coat protein (input ligand: FMN 200 uM): 329 nM | apparent KD of MS2 coat protein (input ligand: none): 403 nM

GGAUCAUAUGUCAGGAUAUGCUGGUCCUUGGAUCAGCAGAAGGGACAUGAGGAUCACCCAUGUCAUGAAGAUCC [Eli bmx4 4.79] (Eterna round: R97, puzzle: Brourd's mod of Exclusion 4)
apparent KD of MS2 coat protein (input ligand: FMN 200 uM): 203 nM | apparent KD of MS2 coat protein (input ligand: none): 28.3 nM

AAUCAUCAUGUAGGAUAUGCGUGGCGAAGCUAUGCAGAAGGACAUGAGGAUCACCCAUGUUCUUGCGUCUGCGUACAGAUGCAA [Mat - Exclusion NG 1 - Mod of JL - D72] (Eterna round: R96, puzzle: Exclusion NG 1)
apparent KD of MS2 coat protein (input ligand: FMN 200 uM): 135 nM | apparent KD of MS2 coat protein [1]: 67.7 nM | apparent KD of MS2 coat protein (input ligand: none): 72 nM

GGUCCUUCUGUCAGGAUAUCCAGUAUCAGACAGCAGGAGAAGGGACAUGAGGAUCACCCAUGUAAUAAGAAGAA [Onrean] (Eterna round: R97, puzzle: Brourd's mod of Exclusion 4)
apparent KD of MS2 coat protein (input ligand: FMN 200 uM): 51.9 nM | apparent KD of MS2 coat protein (input ligand: none): 27.6 nM

CCGCCAUGAGGAUAUUAGUAGUAGUCAGAAAAGACUAUUACUGAGAAGGCACAUGAGGAUCACCCAUGUAGCGG [Mat - Exclusion 4 - Eli Mod - D50] (Eterna round: R97, puzzle: Exclusion 4)
apparent KD of MS2 coat protein (input ligand: FMN 200 uM): 18.8 nM | apparent KD of MS2 coat protein (input ligand: none): 41 nM

UAUGGUUAAGUCAGGAUAUGCUCGUAGAGGUCUAUGCAGAAGGGACAUGAGGAUCACCCAUGUAUGGUCGUGUU [Ex4 #67] (Eterna round: R97, puzzle: Brourd's mod of Exclusion 4)
apparent KD of MS2 coat protein (input ligand: FMN 200 uM): 161 nM | apparent KD of MS2 coat protein (input ligand: none): 67 nM

GUGUAGGGAGGAUAUACAUGAGGAUCACCCAUGUGAAUAAGAUAGAAUAAGAUAAAGUGUAGAAGGUCUAGUGU [Excluse me!!! 12 - Jieux - Exclusion 3] (puzzle: Exclusion 3)
apparent KD of MS2 coat protein [2]: 52.7 nM

CUGAGAUGAGGAUAUACAUGAGGAUCACCCAUGUAAAGUAGCUUGCGUACAGGCAGAUGUAGAAGGCAUUUCGG [Mod of JL 4 - Jieux - Exclusion 3] (Eterna round: R97, puzzle: Exclusion 3)
apparent KD of MS2 coat protein (input ligand: FMN 200 uM): 44.7 nM | apparent KD of MS2 coat protein (input ligand: none): 25.3 nM

AGCUGUGGCCGAGGAUAUCUAAUAAUCCCAACCGAAAUAUAAUCGGACAUGAGGAUCACCCAUGUAGAGAAGGCGGUCUCAGCA [Eli eng2 - 066] (Eterna round: R96, puzzle: Exclusion NG 2)
apparent KD of MS2 coat protein [1]: 96.6 nM

UUUUUAUAUGAAGGAUAUACUUAACAUGAGGAUCACCCAUGUGGUGUUGUGAGUGAGUGAGUUUAGUAGAAGGUCAAUUAGCUU [JMF's solution 100] (Eterna round: R96, puzzle: Exclusion NG 2)
apparent KD of MS2 coat protein (input ligand: FMN 200 uM): 330 nM | apparent KD of MS2 coat protein [1]: 185 nM | apparent KD of MS2 coat protein (input ligand: none): 342 nM

UUUCGGCAUGUAGGAUAUGGGUCCGAUUAGGAUUUAGAAGGACAUGAGGAUCACCCAUGUGCAUUUAAUUGGUCAUUACCUUUU [EXclNG1-LROPPY10] (Eterna round: R96, puzzle: Exclusion NG 1)
apparent KD of MS2 coat protein [1]: 46.5 nM

AAAGGGCGUGUGAGGAUAUCGACCCGACUUCCAGUCGAGAAGGCACAUGAGGAUCACCCAUGUGAUGACAGCGA [BmEX4 B.8] (Eterna round: R97, puzzle: Brourd's mod of Exclusion 4)
apparent KD of MS2 coat protein (input ligand: FMN 200 uM): 38.4 nM | apparent KD of MS2 coat protein (input ligand: none): 16.2 nM

GCUGCAAAUGUAGGAUAUCUGCACGUGUAGUGCAGAGAAGGACAUGAGGAUCACCCAUGUAGAUCAGCAGCAAUUAAUUUAAUU [ENG1/5-A3] (Eterna round: R96, puzzle: Exclusion NG 1)
apparent KD of MS2 coat protein (input ligand: FMN 200 uM): 288 nM | apparent KD of MS2 coat protein [1]: 34.5 nM | apparent KD of MS2 coat protein (input ligand: none): 42.2 nM

GAGAAUUCAUAGGAUAUCGUAUGGAUAAUUUAACGAGAAGGAUGAACAUGAGGAUCACCCAUGUGGUAUCAUGG [salish99_ex6_r3_002] (puzzle: Exclusion 6)
apparent KD of MS2 coat protein [3]: 83.5 nM | apparent KD of MS2 coat protein [2]: 87.5 nM | apparent KD of MS2 coat protein [4]: 95 nM

AACCAGCUAGGAUAUGCUUGCGCGUGUUCUGGUUAUAAUCGACUUGAGGAUCACCCAAGUAGAAGGAGCUGGCG [EX2 #54] (Eterna round: R97, puzzle: Exclusion 2)
apparent KD of MS2 coat protein (input ligand: FMN 200 uM): 1360 nM | apparent KD of MS2 coat protein (input ligand: none): 445 nM

AAUAACAGAGGAUAUACUGUUUUAUGUGUUUGUUAUUUUGAACAUGAGGAUCACCCAUGUAGAAGGCUGAUUGA [JMF 76] (puzzle: Exclusion 2)
apparent KD of MS2 coat protein [2]: 46 nM

CCAUACCGAGGAUAUACAUGAGGAUCACCCAUGUCAAAACCACGUGUACGGCGGUCUUGUAGAAGGCGGAAAUA [Onbisodi] (puzzle: Exclusion 3)
apparent KD of MS2 coat protein [2]: 9.99 nM

GAGAGGUCAGGAUAUACGGAGAGAGAGAGUAGGUGAGGGUAACAUGAGGAUCACCCAUGUAGAAGGGACUAAGG [JR_Exclu2_Sub075] (puzzle: Exclusion 2)
apparent KD of MS2 coat protein [3]: 51.7 nM | apparent KD of MS2 coat protein [2]: 48.4 nM | apparent KD of MS2 coat protein [4]: 46.3 nM

AAGUACCGUCACGAUAGUGAUGGUACAACAAGCAAAUGUACAUGAGGAUCACCCAUGUCCUCUUUUGCUCGUCUUAU [Sensor 3 - 94] (puzzle: Sensor v3, turn-off variant 2)
apparent KD of MS2 coat protein [3]: 53.3 nM | apparent KD of MS2 coat protein [2]: 28.9 nM | apparent KD of MS2 coat protein [4]: 53.8 nM

CCUUAGUCAGGAUAUUGAGGUAAAAGAAAAGAAAACGACAGCAAGAAGGGACAUGAGGAUCACCCAUGUAUAAA [Bequxeain] (puzzle: Exclusion 4)
apparent KD of MS2 coat protein [3]: 24.4 nM | apparent KD of MS2 coat protein [2]: 30.1 nM | apparent KD of MS2 coat protein [4]: 16.2 nM
